Results on four molecules are retold here after patent US20180072806A1 (SHIRE HUMAN GENETIC THERAPIES, published 2018).

Assay [1] concerns the target T1, recombinant human soluble Flt-1 (human, UniProt P17948 27-758).
T1 construct: Recombinant soluble form (immunogen bought from ABCAM); also called human sFlt-1; sFlt-1
Description: human competition ELISA with human sFlt-1 and VEGF; blocked ligand VEGF; antibody titrated. (An ELISA detects its analyte on a solid surface through an enzyme-linked reagent.)

Assay [2] concerns the target T1, recombinant human soluble Flt-1. Briefly: VEGF:sFlt1 binding assay (competition ELISA); blocked ligand VEGF; antibody titrated.

T1 sequence (P17948 27-758 limits assumed): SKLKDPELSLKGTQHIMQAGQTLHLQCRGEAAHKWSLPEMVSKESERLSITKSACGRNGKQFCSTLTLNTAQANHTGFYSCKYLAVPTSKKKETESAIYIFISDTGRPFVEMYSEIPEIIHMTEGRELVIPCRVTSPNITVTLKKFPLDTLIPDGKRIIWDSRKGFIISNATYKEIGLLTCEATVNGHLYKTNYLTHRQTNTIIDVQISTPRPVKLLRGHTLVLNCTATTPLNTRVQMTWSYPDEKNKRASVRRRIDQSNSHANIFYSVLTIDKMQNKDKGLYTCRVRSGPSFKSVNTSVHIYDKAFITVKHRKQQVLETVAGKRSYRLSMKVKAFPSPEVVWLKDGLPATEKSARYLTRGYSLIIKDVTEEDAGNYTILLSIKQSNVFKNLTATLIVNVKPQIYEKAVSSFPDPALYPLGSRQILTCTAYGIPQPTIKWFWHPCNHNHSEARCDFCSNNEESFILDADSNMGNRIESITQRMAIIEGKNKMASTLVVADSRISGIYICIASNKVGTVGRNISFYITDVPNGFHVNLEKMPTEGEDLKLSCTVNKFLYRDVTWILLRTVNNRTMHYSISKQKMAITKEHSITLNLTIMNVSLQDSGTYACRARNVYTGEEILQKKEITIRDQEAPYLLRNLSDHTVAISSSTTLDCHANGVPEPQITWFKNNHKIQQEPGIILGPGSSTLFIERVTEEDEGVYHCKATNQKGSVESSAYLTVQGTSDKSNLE

B1: anti-Flt-1 antibody 21B3 (antibody, V domains shown)
VH: ELQLVESGGGLVQPGGSLRLSCAASGFTFRDYSMSWVRQAPGKGLEWVSAISWNGDSTYYAESMKGRFTISRDNAKNTLYLQMNSLKSEDTAVYYCAKSWATPIESLYYYGMDYWGKGTLVTVSS
VL: SYELTQSPSVSVALRQTAKITCGGNNIGSQTAQWYQQKPGQAPVLVIYANNRRPSGIPERFSGSKSGNTATLTISGAQAEDEADYYCQVWDGSTQAIVFGGGTHLTVL
notes: VL is LC_21B3; IgG with wild-type Fc; also called 21B3 WT; clone 21B3
For the molecule B1, in assay [1], the “IC50 (read off the curve)” value was roughly 3 ng/mL.

B2: anti-Flt-1 antibody 27H9 (antibody, human IgG1, lambda, V domains shown)
VH: EVQLLESGGGLVQPGGSLRLSCAASGFTFRDYSMSWVRQAPGKGLEWVSAISWNGDSTYYAESAKGRFTISRDNSKNTLYLQMNSLRAEDTAVYYCAKSWATPIESLYYYGSDYWGQGTLVTVSS
VL: SYELTQPLSVSVALRQTARITCGGNNIGSQTAQWYQQKPGQAPVLVIYANNRRPSGIPERFSGSKSGNTATLTISRAQAEDEADYYCQVWDESTQAIVFGGGTKLTVLG
notes: also called 27H9 WT; 27H9 WT 23/07
Regarding B2, in assay [2], the “IC50 (read off the curve)” value is roughly 10 ng/mL.

B3: anti-Flt-1 antibody 27H4 (antibody, human IgG1, lambda, V domains shown)
VH: ELQLVESGGGLVQPGGSLRLSCAASGFTFRDYSMSWVRQAPGKGLEWVSAISWNGDSTYYAESLKGRFTISRDNAKNTLYLQMNSLRAEDTAVYYCAKSWATPIESLYYYGSDYWGQGTLVTVSS
VL: SYELTQPLSVSVALGQTARITCGGNNIGSQTAQWYQQKPGQAPVLVIYANNRRPSGIPERFSGSKSGNTATLTISRAQAEDEADYYCQVWEDSTQAIVFGGGTKLTVLG
As for B3, the “IC50 (read off the curve)” value in assay [2] was roughly 10 ng/mL.

B4: anti-Flt-1 antibody 27H6 (antibody, human IgG1, lambda, V domains shown)
VH: ELQLVESGGGLVQPGGSLRLSCAASGFTFSDYSASWVRQAPGKGLEWVSAISWSGDSTYYAESVKGRFTIFRDNSKNTLYLQMNSLRAEDTAVYYCAKSWATPIESLYYYGSDYWGQGTLVTVSS
VL: SYELTQPLSVSVALRQAAKITCGGNNIGSQTAQWYQQKPGQAPVLVIYANNRRPSGIPERFSGSKSGNTATLTISRAQAGDEADYYCQVWDGSTQAIVFGGGTKLTVLG
For B4, in assay [2], the “IC50 (read off the curve)” value is roughly 6 ng/mL.
